Consider one molecule from patent US20240166760A1 (UNIVERSITY OF PITTSBURGH OF THE COMMONWEALTH SYSTEM OF …, published 2024).

Test [1] addresses T1, Human IgG1 Fc-fused CEACAM5 A3B3 (residues 501-682) (human, UniProt P06731 501-682).
T1 construct: Expressed in Freestyle HEK cells and N-glycosylated; also called CEACAM5 A3B3-Fc; A3B3-Fc; not shown: human immunoglobulin 1 Fc region (hIgG1 Fc)
T1 sequence: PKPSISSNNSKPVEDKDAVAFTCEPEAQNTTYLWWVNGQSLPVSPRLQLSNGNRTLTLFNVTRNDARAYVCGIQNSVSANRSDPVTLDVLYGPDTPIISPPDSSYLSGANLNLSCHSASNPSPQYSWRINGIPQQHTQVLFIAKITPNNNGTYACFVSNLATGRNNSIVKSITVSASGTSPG
Nature of the test: SPR (BIAcore).

Test [2] deals with T1, Human IgG1 Fc-fused CEACAM5 A3B3 …. The test is described as follows: indirect ELISA, antigen coated on plate. As for the experimental part:
(§1) Binding and specificity of scFv, Fab, or IgG to CEACAM related proteins were analyzed through indirect ELISA. Briefly, Fc-fused CEACAM5 polypeptides, CEACAM6 polypeptides, extra-cellular domain of CEACAM5 (R&D systems, 4128-CM), CEACAM6 (R&D systems, 3934-CM), or cynomolgus CEACAM5 (Sino biological, 90891-C08H) was coated on a 96 well plate (Corning, 3690) at 200 ng/well (50 μL volume) in PBS for 2 hours at room temperature. Blocking was carried out with 3% BSA in PBS for overnight at 4° C. Next day, various concentration of scFv, Fab, or IgG was treated to antigen coated plates and incubated for 1 hour at room temperature. After washing three times, anti-FLAG mouse antibody (M2 clone)-HRP conjugated (Sigma, A8592, 1:3000 dilution) or anti-human kappa goat antibody-HRP conjugated (Invitrogen, A18853, 1:3000 dilution) was treated for binding detection. Same volume of TMB (Thermo, PI34028) was added as a substrate, and then enzymatic reaction was stopped by adding of 2N sulfonic acid. The monomeric Fc fused-CD16a (Fc γRIIIa), CD64 (Fc γRIa) and CD32 (Fc γRIIa) were obtained from Prof. Wei Li (University of Pittsburgh, PA) and used for Fc gamma receptor (FcγR) binding test.

Test [3] deals with T2, Human IgG1 Fc-fused CEACAM5 A2B2 (residues 323-500) (human, UniProt P06731 323-500).
T2 construct: also called CEACAM5 A2B2-Fc; A2B2 domains of CEACAM5; not shown: human immunoglobulin 1 Fc region (hIgG1 Fc)
T2 chain: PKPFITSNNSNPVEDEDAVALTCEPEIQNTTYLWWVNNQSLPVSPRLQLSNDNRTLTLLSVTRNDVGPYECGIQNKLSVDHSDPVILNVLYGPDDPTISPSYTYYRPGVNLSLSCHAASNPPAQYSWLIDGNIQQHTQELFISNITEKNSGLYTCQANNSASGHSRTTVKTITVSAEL
Nature of the test: indirect ELISA / BIAcore.

For test [4], the target named is T3, Human IgG1 Fc-fused CEACAM5 A1B1 (residues 145-322) (human, UniProt P06731 145-322).
T3 construct: also called CEACAM5 A1B1-Fc; A1B1 domains of CEACAM5; not shown: human immunoglobulin 1 Fc region (hIgG1 Fc)
T3 sequence: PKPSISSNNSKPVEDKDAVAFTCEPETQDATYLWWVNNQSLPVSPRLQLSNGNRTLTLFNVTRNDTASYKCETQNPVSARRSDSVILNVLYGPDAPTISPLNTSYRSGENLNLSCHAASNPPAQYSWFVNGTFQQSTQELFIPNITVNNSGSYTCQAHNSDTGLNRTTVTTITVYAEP
The test is described as follows: indirect ELISA / BIAcore.

Test [5] addresses T4, Human IgG1 Fc-fused CEACAM5 A3B3 (residues 501-682) (UniProt P06731 501-682).
T4 chain: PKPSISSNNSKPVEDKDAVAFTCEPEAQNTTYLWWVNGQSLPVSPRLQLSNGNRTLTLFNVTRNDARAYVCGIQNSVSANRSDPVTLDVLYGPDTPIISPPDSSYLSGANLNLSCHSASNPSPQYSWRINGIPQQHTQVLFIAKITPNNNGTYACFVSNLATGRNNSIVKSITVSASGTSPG
Nature of the test: SPR (Biacore).

The target in test [6] is T5, Fc-fused CEACAM5 A3B3 domain N580Q mutant (human, UniProt P06731 501-682).
T5 construct: N-glycosylation site mutant of A3B3-Fc; not shown: human IgG1 Fc carrier and its junction to A3B3
T5 chain: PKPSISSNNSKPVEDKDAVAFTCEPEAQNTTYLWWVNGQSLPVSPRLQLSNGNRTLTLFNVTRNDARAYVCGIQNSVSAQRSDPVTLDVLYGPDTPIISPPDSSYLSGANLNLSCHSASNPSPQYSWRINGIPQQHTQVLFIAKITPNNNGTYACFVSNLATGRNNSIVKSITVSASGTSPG
Nature of the test: indirect ELISA. As for the experimental part: as §1, with “test. […]” for “test.”

The target of test [7] is T6, human CEACAM6 on Freestyle 293F cells (human, UniProt P40199 35-320).
T6 construct: whole, on cells; Gene carries a FLAG-tag at the C-terminal; Transiently expressed; also called CD66c
T6 sequence (looked up): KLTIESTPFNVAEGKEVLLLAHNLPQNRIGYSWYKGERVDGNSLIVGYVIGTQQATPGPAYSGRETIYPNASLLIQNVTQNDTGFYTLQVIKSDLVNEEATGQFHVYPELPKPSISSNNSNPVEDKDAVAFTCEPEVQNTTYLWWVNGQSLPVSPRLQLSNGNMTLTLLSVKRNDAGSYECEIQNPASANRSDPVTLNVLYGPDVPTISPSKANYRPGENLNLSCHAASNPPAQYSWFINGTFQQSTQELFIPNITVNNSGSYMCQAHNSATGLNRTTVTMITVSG
The test is described as follows: flow cytometry on transfected HEK293F cells. As for the experimental part:
(§2) To determine the cell surface expression levels of CEACAM5 or CEACAM family proteins, the cells were stained with PE-conjugated anti-CEACAM5 IgG1 (Miltenyi Biotec, 130-114-217) or PE-conjugated anti-FLAG mouse antibody (Miltenyi Biotec, 130-101-576). To confirm cell surface binding of selected antibodies, cells were treated with a hIgG1 having the CDRs of Clone #1, a hIgG1 having the CDRs of Clone #2, or the Clone #1 Fab for 1 hour at 4° C. and then stained with Alexa647-conjugated goat anti-human IgG (Invitrogen, A21445) or FITC conjugated-goat anti-human kappa light chain (Invitrogen, A18854) for 0.5 hours at 4° C. For the internalization assays, cells (1×10⁵ cells/well in 96-well plate) were treated with Alexa488-labeled antibodies for durations between 0 and 30 hours. After incubation of antibodies, cells were washed with cold PBS, and then the remained cell surface binding antibodies were analyzed using Alexa488 fluorescence. For CAR expression on anti-CEACAM5 CAR-T cells, CD4⁺ T or CD8⁺ T cells were gated using APC-conjugated anti-human CD4 antibody (ebioscience, 17-0049-42) and eFluor450-conjugated anti-human CD8 antibody (ebioscience, 48-0088-42), and CAR expression was examined using FITC-labeled recombinant Protein L (Acrobiosystems, RPL-PF141).

For test [8], the target named is T7, human CEACAM20 on Freestyle 293F cells (human, UniProt Q6UY09 31-596).
T7 construct: whole, on cells; Gene carries a FLAG-tag at the C-terminal; Transiently expressed
The test is described as follows: flow cytometry on transfected HEK293F cells. On the procedure: as §2

For test [9], the target named is T8, human CEACAM18 on Freestyle 293F cells (human, UniProt A8MTB9 31-384).
T8 construct: whole, on cells; Gene carries a FLAG-tag at the C-terminal; Transiently expressed
T8 sequence (looked up): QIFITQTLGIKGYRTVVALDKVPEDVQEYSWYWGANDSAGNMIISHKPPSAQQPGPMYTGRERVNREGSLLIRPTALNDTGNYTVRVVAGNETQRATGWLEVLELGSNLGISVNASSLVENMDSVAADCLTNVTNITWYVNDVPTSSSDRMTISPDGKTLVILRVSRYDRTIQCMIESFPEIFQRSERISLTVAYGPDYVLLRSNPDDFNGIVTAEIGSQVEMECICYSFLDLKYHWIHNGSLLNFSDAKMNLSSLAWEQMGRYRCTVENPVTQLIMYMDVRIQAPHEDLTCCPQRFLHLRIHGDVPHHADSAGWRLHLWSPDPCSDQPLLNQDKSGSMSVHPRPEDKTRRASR
The test is described as follows: flow cytometry on transfected HEK293F cells. On the procedure:
as §2

Test [10] has as its target T9, human CEACAM21 on Freestyle 293F cells (human, UniProt Q3KPI0 35-293).
T9 construct: whole, on cells; Gene carries a FLAG-tag at the C-terminal; Transiently expressed
The test is described as follows: flow cytometry on transfected HEK293F cells. On the procedure: as §2

Test [11] deals with T10, human CEACAM7 on Freestyle 293F cells (human, UniProt Q14002 36-242).
T10 construct: whole, on cells; Gene carries a FLAG-tag at the C-terminal; Transiently expressed
T10 sequence (looked up): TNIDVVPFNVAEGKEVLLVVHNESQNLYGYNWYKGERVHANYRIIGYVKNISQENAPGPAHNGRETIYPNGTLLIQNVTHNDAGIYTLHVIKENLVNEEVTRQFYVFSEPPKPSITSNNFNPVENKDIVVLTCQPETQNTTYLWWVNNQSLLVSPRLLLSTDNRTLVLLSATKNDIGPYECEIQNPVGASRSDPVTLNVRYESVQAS
Nature of the test: flow cytometry on transfected HEK293F cells. As for the experimental part: as §2

Test [12] concerns the target T11, human CEACAM1 on Freestyle 293F cells (human, UniProt P13688 35-526).
T11 construct: whole, on cells; Gene carries a FLAG-tag at the C-terminal; Transiently expressed
T11 sequence (looked up): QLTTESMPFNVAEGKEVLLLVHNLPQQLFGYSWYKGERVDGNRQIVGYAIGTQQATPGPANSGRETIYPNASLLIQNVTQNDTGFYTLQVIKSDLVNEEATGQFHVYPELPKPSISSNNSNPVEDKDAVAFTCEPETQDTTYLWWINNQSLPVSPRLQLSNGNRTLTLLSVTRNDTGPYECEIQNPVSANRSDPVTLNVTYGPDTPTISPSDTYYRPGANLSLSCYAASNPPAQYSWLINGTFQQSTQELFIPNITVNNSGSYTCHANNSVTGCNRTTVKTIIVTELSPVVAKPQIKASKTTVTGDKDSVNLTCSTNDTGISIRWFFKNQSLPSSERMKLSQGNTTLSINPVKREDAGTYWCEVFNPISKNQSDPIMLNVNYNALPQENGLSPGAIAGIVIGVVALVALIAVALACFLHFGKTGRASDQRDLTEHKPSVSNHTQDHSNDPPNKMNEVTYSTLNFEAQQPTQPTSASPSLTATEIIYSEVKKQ
The test is described as follows: flow cytometry on transfected HEK293F cells. As for the experimental part: as §2

The target of test [13] is T12, human CEACAM8 on Freestyle 293F cells (human, UniProt P31997 35-320).
T12 construct: whole, on cells; Gene carries a FLAG-tag at the C-terminal; Transiently expressed
T12 sequence (looked up): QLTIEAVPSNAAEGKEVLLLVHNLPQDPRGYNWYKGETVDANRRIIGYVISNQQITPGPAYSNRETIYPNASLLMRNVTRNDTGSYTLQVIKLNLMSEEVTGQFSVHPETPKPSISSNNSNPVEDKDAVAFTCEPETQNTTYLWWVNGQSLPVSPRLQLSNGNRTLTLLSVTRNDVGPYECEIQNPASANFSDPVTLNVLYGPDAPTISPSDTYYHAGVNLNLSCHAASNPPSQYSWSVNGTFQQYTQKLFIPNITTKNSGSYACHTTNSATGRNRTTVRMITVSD
Nature of the test: flow cytometry on transfected HEK293F cells. On the procedure:
as §2

The target in test [14] is T13, human CEACAM16 on Freestyle 293F cells (human, UniProt Q2WEN9 21-425).
T13 construct: whole, on cells; Gene carries a FLAG-tag at the C-terminal; Transiently expressed
T13 sequence (looked up): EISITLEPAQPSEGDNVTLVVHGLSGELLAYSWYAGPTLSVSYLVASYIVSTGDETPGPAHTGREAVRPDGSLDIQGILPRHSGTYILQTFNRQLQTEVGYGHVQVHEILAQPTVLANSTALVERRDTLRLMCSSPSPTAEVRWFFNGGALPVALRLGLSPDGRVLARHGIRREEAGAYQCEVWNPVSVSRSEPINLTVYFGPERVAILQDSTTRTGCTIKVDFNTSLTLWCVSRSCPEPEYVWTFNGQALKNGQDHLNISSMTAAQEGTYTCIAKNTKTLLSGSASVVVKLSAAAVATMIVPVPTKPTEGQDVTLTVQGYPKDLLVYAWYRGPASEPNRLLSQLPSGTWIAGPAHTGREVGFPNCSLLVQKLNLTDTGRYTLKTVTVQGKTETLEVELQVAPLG
The test is described as follows: flow cytometry on transfected HEK293F cells. On the procedure: as §2

T7 sequence (Q6UY09 31-596): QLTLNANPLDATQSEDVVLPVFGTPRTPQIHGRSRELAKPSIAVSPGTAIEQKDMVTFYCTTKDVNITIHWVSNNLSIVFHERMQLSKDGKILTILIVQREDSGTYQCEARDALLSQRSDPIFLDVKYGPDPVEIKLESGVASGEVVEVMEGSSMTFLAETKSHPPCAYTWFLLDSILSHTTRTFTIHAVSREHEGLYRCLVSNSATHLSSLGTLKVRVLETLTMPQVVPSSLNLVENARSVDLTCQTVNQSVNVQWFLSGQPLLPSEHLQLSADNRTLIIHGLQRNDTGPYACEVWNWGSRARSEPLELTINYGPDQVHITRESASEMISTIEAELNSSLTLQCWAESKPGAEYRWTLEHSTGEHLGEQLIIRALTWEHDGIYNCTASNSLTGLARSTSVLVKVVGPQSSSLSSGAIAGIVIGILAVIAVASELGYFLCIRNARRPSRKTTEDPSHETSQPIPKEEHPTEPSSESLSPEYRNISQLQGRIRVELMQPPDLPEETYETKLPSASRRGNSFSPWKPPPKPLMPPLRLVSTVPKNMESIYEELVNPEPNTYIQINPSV
T9 sequence (Q3KPI0 35-293): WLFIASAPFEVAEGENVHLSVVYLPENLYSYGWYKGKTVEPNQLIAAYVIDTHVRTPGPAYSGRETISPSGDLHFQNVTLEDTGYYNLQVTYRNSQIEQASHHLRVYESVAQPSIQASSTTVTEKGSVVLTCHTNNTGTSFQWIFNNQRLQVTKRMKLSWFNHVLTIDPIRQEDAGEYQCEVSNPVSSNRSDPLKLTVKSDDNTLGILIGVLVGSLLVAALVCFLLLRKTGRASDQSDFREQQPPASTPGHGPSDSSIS

B1: Clone #1 Fab (1G9 Fab) (Fab, V domains shown)
VH: QVQLVESGGGLVKPGGSLRLSCAASGFTFSDYYMSWIRQAPGKGLEWVSYISSSGSTIYYADSVKGRFTISRDNAKNSLYLQMNSLRAEDTAVYYCARIGRYSYGLRSYYYYGMDVWGQGTTVTVSS
VL: DIQMTQSPSSLSASVGDRVTITCRASQSISSYLNWYQQKPGKAPKLLIYAASSLQSGVPSRFSGSGSGTDFTLTISSLQPEDFGVYYCMQALQTPVTFGQGTRLEIKR
notes: Human Fab from a phage library (IGHV3-11 / IGKV1-39 frameworks), made in E. coli and purified on Ni-NTA
For B1, the values for the Kd in [1] and in [5] were 3 nM and 1.91 nM, respectively. Besides, the EC50 in test [2] is approximately 6 nM. Moreover, the binding result in [3] is “no binding”; in test [4] it was “no binding”; in test [6], “binds”; in [7], “no binding”; in test [8] it was “no binding”; in test [9], “no binding”. In addition, the binding result in [10], in test [11], in test [12], in test [13] and in [14] was “no binding” in each case.
